Among the data in the supplement of paper PMC9732359 are protein stability index values, retold here.

± gives the uncertainty stated by the source.

The nature of the data set: protein stability index of a GFP-peptide fusion (yeast GPS) (PSI 1-4); higher = more stable; sorted into four equal gates, so the index is relative within each strain. The method in brief:
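Tiled yeast protein peptides of 17 residues were each joined downstream of GFP, on plasmids that also express Cherry. The pooled library was maintained in yeast, and mid-log cultures in leucine-free medium were sorted into four equal gates on the GFP/Cherry ratio. Plasmids from every gate were amplified by PCR and sequenced on Illumina, with barcodes linking reads to strains. The protein stability index of a peptide is its gate-number-weighted read frequency summed over the gates.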

Regarding FNEKFPSLIQEEEEDTT [NUT1], the protein stability index by setting is: (doa10∆) 2.78 ± 0.086; (pdr5∆) 3.15 ± 0.093; (san1∆) 3.06 ± 0.074; (ubr1∆) 3.06 ± 0.078.

The sequence FNFFEPIKEAKIKHGSV [YMR129W/POM152] had a protein stability index (doa10∆) of 2.7 ± 0.054, a protein stability index (pdr5∆) of 2.89 ± 0.056, a protein stability index (san1∆) of 2.54 ± 0.065 and a protein stability index (ubr1∆) of 2.83 ± 0.046.

Take FNKNLGKGPGCGFWQPA [PRP8]: the protein stability index is, setting by setting: (doa10∆) 3.18 ± 0.16; (pdr5∆) 3.25 ± 0.15; (san1∆) 3.39 ± 0.14; (ubr1∆) 3.54 ± 0.075.

In the case of FNNEKETEKFALERNWP [RPN12], the protein stability index reads like this: (doa10∆) 2.68 ± 0.07; (pdr5∆) 2.63 ± 0.055; (san1∆) 2.76 ± 0.041; (ubr1∆) 2.84 ± 0.037.

For FNSVVNLSRYPKSGIDI [MTR3], the protein stability index is 2.66 ± 0.055 (doa10∆), 2.96 ± 0.086 (pdr5∆), 2.82 ± 0.079 (san1∆) and 3.03 ± 0.075 (ubr1∆).

Regarding FNVPVVSKQLGNGLVDE [YAR002W/NUP60], the protein stability index stood at 3.66 ± 0.22 (pdr5∆), 3.26 ± 0.14 (san1∆) and 2.99 ± 0.14 (ubr1∆).

With FPNIAIRPTELRLPFSA [PRP8], the protein stability index by setting is: (doa10∆) 2.11 ± 0.084; (pdr5∆) 1.85 ± 0.086; (san1∆) 1.93 ± 0.09; (ubr1∆) 2.23 ± 0.076.

Regarding FPQGLNIVMDSKQNGIE [SSN8], the protein stability index came out at 3.11 ± 0.091 (doa10∆), 3.04 ± 0.21 (pdr5∆), 3.26 ± 0.078 (san1∆) and 2.61 ± 0.1 (ubr1∆).

Take FPRSRSRSRSSIRSISP [ESC2]: the protein stability index is, setting by setting: (doa10∆) 2.86 ± 0.2; (pdr5∆) 3.18 ± 0.13; (san1∆) 3.03 ± 0.09; (ubr1∆) 3.34 ± 0.19.

As for FQALDSEETQFKYVEDR [ITC1], the protein stability index is 2.88 ± 0.097 (doa10∆), 3.44 ± 0.12 (pdr5∆), 3.06 ± 0.069 (san1∆) and 3.45 ± 0.14 (ubr1∆).

For the sequence FRALGIIPDGEILEHIC [RPB2], the protein stability index was determined as 2.43 ± 0.057 (doa10∆), 2.55 ± 0.12 (pdr5∆), 2.46 ± 0.089 (san1∆) and 2.79 ± 0.047 (ubr1∆).

Take FRISLGLPVGAIMNCAD [RPL23A]: the protein stability index (doa10∆) is 1.95 ± 0.045, the protein stability index (pdr5∆) was 1.9 ± 0.044, the protein stability index (san1∆) was found to be 1.57 ± 0.057 and the protein stability index (ubr1∆) was 1.7 ± 0.035.

In the case of FRKVKLRVDEVQGKNLL [RPS1B], the protein stability index worked out at 3.25 ± 0.1 (doa10∆), 3.35 ± 0.15 (pdr5∆) and 3.28 ± 0.074 (ubr1∆).

For FSEEKAEEFDFNVPVVS [YAR002W/NUP60], the protein stability index by setting is: (doa10∆) 2.48 ± 0.18; (pdr5∆) 1.34 ± 0.16; (san1∆) 1.3 ± 0.13; (ubr1∆) 1.15 ± 0.12.

On to FSFGAKPAEKNNNETSK [YJL041W/NSP1], for which the protein stability index is, setting by setting: (pdr5∆) 2.52 ± 0.24; (ubr1∆) 3.08 ± 0.24.

Take FSKGDADVLVDRVVSSD [SRP72]: the protein stability index runs as follows: (doa10∆) 3.28 ± 0.091; (pdr5∆) 3.2 ± 0.098; (san1∆) 3.02 ± 0.098; (ubr1∆) 3.04 ± 0.081.

Regarding FSKIAEYYRIQKQLPQK [ESC2], the protein stability index (doa10∆) is 3.18 ± 0.16, the protein stability index (pdr5∆) is 2.99 ± 0.15, the protein stability index (san1∆) stood at 3.26 ± 0.088 and the protein stability index (ubr1∆) is 3.19 ± 0.17.

For the sequence FSNRFLPVASPFHSHLL [FAS1], the protein stability index runs as follows: (doa10∆) 2.5 ± 0.13; (pdr5∆) 2.98 ± 0.11; (san1∆) 3.19 ± 0.27; (ubr1∆) 2.76 ± 0.098.

For the sequence FSQKANKTKAVDNTVPS [YOR098C/NUP1], the protein stability index is, setting by setting: (doa10∆) 2.15 ± 0.085; (pdr5∆) 1.63 ± 0.056; (san1∆) 1.81 ± 0.1; (ubr1∆) 2.17 ± 0.046.

For FSRRFDCRDVYCHEKEL [CSN9], the protein stability index (ubr1∆) stood at 2.99 ± 0.19.

For FSSLAISEINFLHESSF [CSI1], the protein stability index came out at 2.21 ± 0.038 (doa10∆), 2.56 ± 0.035 (pdr5∆), 2.26 ± 0.047 (san1∆) and 2.53 ± 0.039 (ubr1∆).

Take FTAEGIVPDLIINPHAI [RPB2]: the protein stability index was 2.24 ± 0.069 (doa10∆), 2.36 ± 0.081 (pdr5∆), 2.08 ± 0.081 (san1∆) and 2.67 ± 0.082 (ubr1∆).

In the case of FTKKPVTPNDKIPEREE [SIR4], the protein stability index by setting is: (doa10∆) 3.05 ± 0.13; (pdr5∆) 2.95 ± 0.087; (san1∆) 3.27 ± 0.13; (ubr1∆) 3.1 ± 0.063.

FTKNEEKLLKELENNEF [ITC1]: the protein stability index is, setting by setting: (doa10∆) 2.26 ± 0.083; (pdr5∆) 2.28 ± 0.074; (san1∆) 2.27 ± 0.083; (ubr1∆) 2.24 ± 0.27.

As for FTNPSIVKVFHGAFMDI [RRP6], the protein stability index is, setting by setting: (doa10∆) 1.16 ± 0.084; (pdr5∆) 1.57 ± 0.062; (san1∆) 1.63 ± 0.11; (ubr1∆) 1.38 ± 0.049.
